In ChEMBL document CHEMBL4229465, “SIRT4 is the last puzzle of mitochondrial sirtuins” (Bioorg Med Chem, 2018):
Values belong to the molecule of their own block, whether it stands above or below them. Where a SMILES comes first, the peptide text is derived from it. The star is where a group is joined. ξ: configuration not given here. Biotin = O=C1N[C@H]2[C@H](CS[C@H]2CCCCC(=O)*)N1; Lipoyl(6ξ) = O=C(CCCCC1CCSS1)*; X2 = CC(O)(CC(=O)O)CC(=O)*; X1 = CC(C)(CC(=O)*)C(=O)O

Assays:
[1] = molecular target: T1, NAD-dependent protein lipoamidase sirtuin-4, mitochondrial (Homo sapiens) (UniProt Q9Y6E7); test: Ratio of Kcat to Km at recombinant SIRT4 (unknown origin)
T1 sequence (whole entry): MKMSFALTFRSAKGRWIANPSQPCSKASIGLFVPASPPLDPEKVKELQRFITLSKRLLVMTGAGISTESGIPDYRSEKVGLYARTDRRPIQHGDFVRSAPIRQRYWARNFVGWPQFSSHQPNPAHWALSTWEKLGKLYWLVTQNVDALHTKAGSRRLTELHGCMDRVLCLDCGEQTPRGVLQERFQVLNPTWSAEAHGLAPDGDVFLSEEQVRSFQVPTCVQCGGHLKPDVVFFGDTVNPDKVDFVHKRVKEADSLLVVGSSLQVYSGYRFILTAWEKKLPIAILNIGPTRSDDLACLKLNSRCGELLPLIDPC

[2] = molecular target: T2, NAD-dependent protein deacetylase sirtuin-2 (Homo sapiens) (UniProt Q8IXJ6); test: Ratio of Kcat to Km at human SIRT2 (36 to 356 residues) expressed in Escherichia coli rosetta cells
T2 sequence (whole entry): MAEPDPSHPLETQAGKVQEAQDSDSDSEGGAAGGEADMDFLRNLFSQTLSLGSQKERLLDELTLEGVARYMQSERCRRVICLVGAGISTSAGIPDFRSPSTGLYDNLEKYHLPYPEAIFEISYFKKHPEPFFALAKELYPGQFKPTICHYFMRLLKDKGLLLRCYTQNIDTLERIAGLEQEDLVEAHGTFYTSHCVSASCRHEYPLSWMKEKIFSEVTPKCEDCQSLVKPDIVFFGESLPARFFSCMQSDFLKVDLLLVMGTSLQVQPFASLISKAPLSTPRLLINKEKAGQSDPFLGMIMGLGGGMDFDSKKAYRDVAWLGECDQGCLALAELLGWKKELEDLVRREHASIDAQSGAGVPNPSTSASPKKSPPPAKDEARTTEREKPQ

[3] = molecular target: T1, NAD-dependent protein lipoamidase sirtuin-4, mitochondrial (Homo sapiens); test: Ratio of Kcat to Km at human N-terminal His6-tagged SIRT4 (25 to 314 residues) expressed in Escherichia coli codon plus (DE3)
[4] = substrate: CC(C)C[C@H](NC(=O)[C@@H](NC(=O)CN)C(C)C)C(=O)N[C@@H](CCCCNC(=O)CCCCC1CCSS1)C(=O)N[C@@H](CCC(=O)O)C(=O)N[C@@H](Cc1ccc(O)cc1)C(=O)NCC(=O)N[C@H](C(=O)O)C(C)C; test: (§1) Activity at human N-terminal His6-tagged SIRT4 (25 to 314 residues) expressed in Escherichia coli codon plus (DE3)
[5] = substrate: CC(C)C[C@H](NC(=O)[C@@H](NC(=O)CN)C(C)C)C(=O)N[C@@H](CCCCNC(=O)CC(C)(C)C(=O)O)C(=O)N[C@@H](CCC(=O)O)C(=O)N[C@@H](Cc1ccc(O)cc1)C(=O)NCC(=O)N[C@H](C(=O)O)C(C)C; test: as §1
[6] = substrate: CC(=O)NCCCC[C@H](NC(=O)[C@H](CC(C)C)NC(=O)[C@@H](NC(=O)CN)C(C)C)C(=O)N[C@@H](CCC(=O)O)C(=O)N[C@@H](Cc1ccc(O)cc1)C(=O)NCC(=O)N[C@H](C(=O)O)C(C)C; test: as §1
[7] = substrate: CC(C)C[C@H](NC(=O)[C@@H](NC(=O)CN)C(C)C)C(=O)N[C@@H](CCCCNC(=O)CC(C)(O)CC(=O)O)C(=O)N[C@@H](CCC(=O)O)C(=O)N[C@@H](Cc1ccc(O)cc1)C(=O)NCC(=O)N[C@H](C(=O)O)C(C)C; test: as §1
[8] = compound: CC[C@H](C)[C@H](NC(=O)[C@H](CC(N)=O)NC(=O)[C@H](CCCCNC(C)=O)NC(=O)[C@H](CO)NC(=O)CNC(=O)[C@H](CC(C)C)NC(=O)[C@H](Cc1ccc(O)cc1)NC(=O)[C@@H](N)CO)C(=O)N[C@@H](CCCCN)C(=O)N[C@@H](C)C(=O)N[C@@H](CO)C(=O)N[C@@H](CCC(=O)O)C(=O)O; test: (§2) Activity at recombinant SIRT4 (unknown origin) in presence of NAD by LC-MS analysis; conditions: Homo sapiens
[9] = compound: C[C@H](NC(=O)[C@@H](NC(=O)[C@H](CCC(N)=O)NC(=O)[C@@H](N)CCCCN)[C@@H](C)O)C(=O)N[C@@H](CCCNC(=N)N)C(=O)N[C@@H](CCCCNC(=O)CCCCC1CCSS1)C(=O)N[C@@H](CO)C(=O)N[C@H](C(=O)NCC(=O)NCC(=O)O)[C@@H](C)O; test: as §2; conditions: Homo sapiens
[10] = compound: CC(=O)NCCCC[C@H](NC(=O)[C@H](CCCNC(=N)N)NC(=O)[C@H](C)NC(=O)[C@@H](NC(=O)[C@H](CCC(N)=O)NC(=O)[C@@H](N)CCCCN)[C@@H](C)O)C(=O)N[C@@H](CO)C(=O)N[C@H](C(=O)NCC(=O)NCC(=O)O)[C@@H](C)O; test: as §2; conditions: Homo sapiens
[11] = compound: C[C@H](NC(=O)[C@@H](NC(=O)[C@H](CCC(N)=O)NC(=O)[C@@H](N)CCCCN)[C@@H](C)O)C(=O)N[C@@H](CCCNC(=N)N)C(=O)N[C@@H](CCCCNC(=O)CCCC[C@@H]1SC[C@@H]2NC(=O)N[C@@H]21)C(=O)N[C@@H](CO)C(=O)N[C@H](C(=O)NCC(=O)NCC(=O)O)[C@@H](C)O; test: as §2; conditions: Homo sapiens
[12] = compound: CC[C@H](C)[C@H](NC(=O)[C@@H](NC(=O)[C@H](C)NC(=O)[C@H](CCCCNC(C)=O)NC(=O)[C@H](CC(=O)O)NC(=O)[C@@H](NC(=O)[C@H](CCC(=O)O)NC(=O)[C@@H](NC(=O)[C@@H](N)CCC(=O)O)[C@@H](C)CC)[C@@H](C)O)[C@@H](C)O)C(=O)NCC(=O)O; test: as §2; conditions: Homo sapiens
[13] = compound: CC[C@H](C)[C@H](NC(=O)[C@@H](NC(=O)[C@H](C)NC(=O)[C@H](CCCCNC(=O)CCCCC1CCSS1)NC(=O)[C@H](CC(=O)O)NC(=O)[C@@H](NC(=O)[C@H](CCC(=O)O)NC(=O)[C@@H](NC(=O)[C@@H](N)CCC(=O)O)[C@@H](C)CC)[C@@H](C)O)[C@@H](C)O)C(=O)NCC(=O)O; test: as §2; conditions: Homo sapiens

Ratio [1]: 0.083 s⁻¹ M⁻¹
Molecule: H-KQTARK(Ac)STGG-OH

Ratio [1]: 0.2 s⁻¹ M⁻¹
Molecule: H-EIETDK(Ac)ATIG-OH

Ratio [2]: 3130 s⁻¹ M⁻¹
Molecule: H-KQLATK(Ac)AARKS-OH

Ratio [1]: 0.0064 s⁻¹ M⁻¹
Molecule: H-SYLGSK(Ac)NIKASE-OH

Ratio [1]: 0.74 s⁻¹ M⁻¹
Molecule: C[C@H](NC(=O)[C@@H](NC(=O)[C@H](CCC(N)=O)NC(=O)[C@@H](N)CCCCN)[C@@H](C)O)C(=O)N[C@@H](CCCNC(=N)N)C(=O)N[C@@H](CCCCNC(=O)CCCC[C@@H]1SC[C@@H]2NC(=O)N[C@@H]21)C(=O)N[C@@H](CO)C(=O)N[C@H](C(=O)NCC(=O)NCC(=O)O)[C@@H](C)O (H-KQTARK(Biotin)STGG-OH)

Ratio [3]: 546 s⁻¹ M⁻¹
Molecule: CC(C)C[C@H](NC(=O)[C@@H](NC(=O)CN)C(C)C)C(=O)N[C@@H](CCCCNC(=O)CC(C)(O)CC(=O)O)C(=O)N[C@@H](CCC(=O)O)C(=O)N[C@@H](Cc1ccc(O)cc1)C(=O)NCC(=O)N[C@H](C(=O)O)C(C)C (stereo partly drawn) (H-GVLK(X2)EYGV-OH)

Ratio [1]: 2.3 s⁻¹ M⁻¹
Molecule: C[C@H](NC(=O)[C@@H](NC(=O)[C@H](CCC(N)=O)NC(=O)[C@@H](N)CCCCN)[C@@H](C)O)C(=O)N[C@@H](CCCNC(=N)N)C(=O)N[C@@H](CCCCNC(=O)CCCCC1CCSS1)C(=O)N[C@@H](CO)C(=O)N[C@H](C(=O)NCC(=O)NCC(=O)O)[C@@H](C)O (stereo partly drawn) (H-KQTARK(Lipoyl(6ξ))STGG-OH)

Ratio [1]: 7.65 s⁻¹ M⁻¹
Molecule: CC[C@H](C)[C@H](NC(=O)[C@@H](NC(=O)[C@H](C)NC(=O)[C@H](CCCCNC(=O)CCCCC1CCSS1)NC(=O)[C@H](CC(=O)O)NC(=O)[C@@H](NC(=O)[C@H](CCC(=O)O)NC(=O)[C@@H](NC(=O)[C@@H](N)CCC(=O)O)[C@@H](C)CC)[C@@H](C)O)[C@@H](C)O)C(=O)NCC(=O)O (stereo partly drawn) (H-EIETDK(Lipoyl(6ξ))ATIG-OH)

Ratio [3]: 170 s⁻¹ M⁻¹
Molecule: CC(C)C[C@H](NC(=O)[C@@H](NC(=O)CN)C(C)C)C(=O)N[C@@H](CCCCNC(=O)CCCCC1CCSS1)C(=O)N[C@@H](CCC(=O)O)C(=O)N[C@@H](Cc1ccc(O)cc1)C(=O)NCC(=O)N[C@H](C(=O)O)C(C)C (stereo partly drawn) (H-GVLK(Lipoyl(6ξ))EYGV-OH)

Ratio [3]: 412 s⁻¹ M⁻¹
Molecule: CC(C)C[C@H](NC(=O)[C@@H](NC(=O)CN)C(C)C)C(=O)N[C@@H](CCCCNC(=O)CC(C)(C)C(=O)O)C(=O)N[C@@H](CCC(=O)O)C(=O)N[C@@H](Cc1ccc(O)cc1)C(=O)NCC(=O)N[C@H](C(=O)O)C(C)C (H-GVLK(X1)EYGV-OH)

Ratio [3]: 3.7 s⁻¹ M⁻¹
Molecule: H-GVLK(Ac)EYGV-OH

B1: NAD-dependent protein lipoamidase sirtuin-4, mitochondrial (Homo sapiens), Q9Y6E7 (protein)
chain: MKMSFALTFRSAKGRWIANPSQPCSKASIGLFVPASPPLDPEKVKELQRFITLSKRLLVMTGAGISTESGIPDYRSEKVGLYARTDRRPIQHGDFVRSAPIRQRYWARNFVGWPQFSSHQPNPAHWALSTWEKLGKLYWLVTQNVDALHTKAGSRRLTELHGCMDRVLCLDCGEQTPRGVLQERFQVLNPTWSAEAHGLAPDGDVFLSEEQVRSFQVPTCVQCGGHLKPDVVFFGDTVNPDKVDFVHKRVKEADSLLVVGSSLQVYSGYRFILTAWEKKLPIAILNIGPTRSDDLACLKLNSRCGELLPLIDPC
Km [4]: 10.1 µM
kcat [4]: 0.0017 s⁻¹
Km [5]: 17.7 µM
kcat [5]: 0.0073 s⁻¹
Km [6]: 2340 µM
kcat [6]: 0.0087 s⁻¹
Km [7]: 9.7 µM
kcat [7]: 0.0053 s⁻¹
Km [8]: > 2500 µM
Km [9]: 814 µM
kcat [9]: 0.0019 s⁻¹
Km [10]: > 2500 µM
Km [11]: 719 µM
kcat [11]: 0.0005 s⁻¹
Km [12]: > 2500 µM
Km [13]: 239 µM
kcat [13]: 0.0018 s⁻¹
